We go through one molecule from paper PMC3488230.

Assay in all cases: EMSA
Series [1] concerns the target Mfd WA550 (Escherichia coli, UniProt P30958 1-1148, W550A).
Series [2] deals with Mfd WA550 RA953 (Escherichia coli, UniProt P30958 1-1148, W550A;R953A).
Series [3] has as its target Mfd D7AAA (Escherichia coli, UniProt P30958 1-1148, E1045A;D1048A;R1049A).
The target in series [4] is Mfd RA953 (Escherichia coli, UniProt P30958 1-1148, R953A).

B1: 50 bp oligonucleotide duplex (dsDNA)
DNA 1: CTCATACGACGCTGTCGATCCAGTCACTGTCATGCGCTATCCGATCCTAG
DNA 2: CTAGGATCGGATAGCGCATGACAGTGACTGGATCGACAGCGTCGTATGAG
B1: the binding result in series [1] is “binds”; in series [2] it was “no binding”; in series [3] it was “binds”; in series [4] it was “binds”.
